In patent US11278600B2, “Human alpha-galactosidase variants” (Codexis, Inc., priority 2014, dated 2022):
Substitutions are numbered along the chain they refer to.

B1: 648 (protein)
chain: LDNGLARTPPMGWLHWERFMCNLDCQEEPDSCISEKLFEEMAERMVTEGWKDAGYEYLCIDDCWMAPQRDSEGRLQADPQRFPHGIRQLANHVHSKGLKLGIYADVGNKTCAGFPGSFGYYDIDAQTFADWGVDLLKFDGCYCDSLENLADGYKHMSLALNRTGRPIVYSCEWPLYMWPFQKPNYTEIRQYCNHWRNFADIDDSWASIKSILDWTSRNQERIVDVAGPGGWNDPDMLVIGNFGLSWDQQVTQMALWAIMAGPLFMSNDLRAISPQAKALLQDKDVIAINQDPLGKQGYQLRKGDNFEVWERPLSGDAWAVAIINRQEIGGPRSYTIPVASLGKGVACNPACFITQLLPVKRQLGFYNATSRLKSHINPTGTVLLQLENTMQTSLKDLL
modifications: Synthetic Polypeptide sequence of Variant No. 648
B2: 659 (protein)
chain: B1 chain with P10T, E39M, W64L, G261A, A368W
modifications: Synthetic Polypeptide sequence of Variant No. 659 of mature Human GLA
B3: 653 (protein)
chain: B1 chain with E39M, W246P, G261A, A368W
modifications: Synthetic Polypeptide sequence of Variant No. 653 of mature Human GLA
B4: 658 (protein)
chain: B1 chain with P10T, W246P, G261A, A368W
modifications: Synthetic Polypeptide sequence of Variant No. 658 of mature Human GLA
B5: 657 (protein)
chain: B1 chain with P10T, E39M, P67T, K182N, G261A, A368W
modifications: Synthetic Polypeptide sequence of Variant No. 657 of mature Human GLA
B6: 650 (protein)
chain: B1 chain with R7H, E39M, G261A, A368W
modifications: Synthetic Polypeptide sequence of Variant No. 650 of mature Human GLA
B7: 651 (protein)
chain: B1 chain with E39M, G261A, A368W
modifications: Synthetic Polypeptide sequence of Variant No. 651 of mature Human GLA
B8: 656 (protein)
chain: B1 chain with E39M, W246P, A368W
modifications: Synthetic Polypeptide sequence of Variant No. 656 of mature Human GLA
B9: 652 (protein)
chain: B1 chain with P10T, E39M, W246P, N305L, A368W
modifications: Synthetic Polypeptide sequence of Variant No. 652 of mature Human GLA
B10: 638 (protein)
chain: B1 chain with E39M, A368W
modifications: Synthetic Polypeptide sequence of Variant No. 638 of mature Human GLA
B11: 649 (protein)
chain: B1 chain with W246P, G261A, A368W
modifications: Synthetic Polypeptide sequence of Variant No. 649 of mature Human GLA
B12: 655 (protein)
chain: B1 chain with P10T, E39M, W246P, N305L
modifications: Synthetic Polypeptide sequence of Variant No. 655 of mature Human GLA
B13: 654 (protein)
chain: B1 chain with R7S, P10T, E39M, G261A, A368W
modifications: Synthetic Polypeptide sequence of Variant No. 654 of mature Human GLA
B14: 647 (protein)
chain: LDNGLARTPTMGWLHWERFMCNLDCQEEPDSCISEKLFMEMAERMVSEGWKDAGYEYLCIDDCWMAPQRDSEGRLQADPQRFPHGIRQLANYVHSIGLKLGIYADVGNKTCAGFPGSFGYYDIDAQTFADWGVDLLKFDGCYCDSLENLADGYKHMSLALNRTGRSIVYSCEWPLYMWPFQKPNYTEIRQYCNHWRNFADIDDSWASIKSILDWTSRNQERIVDVAGPGGWNDPDMLVIGNFGLSWNQQVTQMALWAIMAAPLFMSNDLRHISPQAKALLQDKDVIAINQDPLGKQGYQLRKGDNFEVWERPLSGLAWAVAIINRQEIGGPRSYTIAVASLGKGVACNPGCFITQLLPVKRQLGFYNWSSRLKSHINPTGTVLLQLENTMQMSLKDLL
modifications: Synthetic Polypeptide sequence of Variant No. 346 of mature Human GLA

Test: HTP-analysis of supernatants pretreated with acid (MUGal hydrolysis)
Assay type: biochemical
Conditions: activity of the variant/activity of Rd7BB (SEQ ID NO: 44); challenge at pH 3.5
How it was run: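 Supernatants from INVSc1 yeast secreting GLA variants were challenged at 37° C. for 1-3 h in McIlvaine buffer at pH 3.3-4.3. Residual activity was then measured on 4 mM MUGal substrate stock at pH 4.8 with citrate buffer pH 4.3, over 30-180 min at 37° C. Reactions were quenched with sodium carbonate and read by fluorescence (Ex 355/Em 448 nm).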

Question: With B1 as the molecule, how does the “Relative Activity of GLA Variants After Challenge at pH 3.5” value (from here on “Relative Activity … at pH 3.5”) read?
Answer: Its value is “+ (>0.5 to 1.5 relative activity over Rd7BB (SEQ ID NO: 44))”.

Question: Which “Relative Activity … at pH 3.5” value does the source give for B2 here?
Answer: Its value is “− (<0.5 relative activity to Rd7BB (SEQ ID NO: 44))”.

Question: For B3, which “Relative Activity … at pH 3.5” value is on record?
Answer: Its value is “+ (>0.5 to 1.5 relative activity over Rd7BB (SEQ ID NO: 44))”.

Question: Which “Relative Activity … at pH 3.5” value does the source give for B4 here?
Answer: Its value is “+ (>0.5 to 1.5 relative activity over Rd7BB (SEQ ID NO: 44))”.

Question: With B5 as the molecule, how does the “Relative Activity … at pH 3.5” value read?
Answer: The value was “+ (>0.5 to 1.5 relative activity over Rd7BB (SEQ ID NO: 44))”.

Question: Which “Relative Activity … at pH 3.5” value does the source give for B6 here?
Answer: Its value is “+ (>0.5 to 1.5 relative activity over Rd7BB (SEQ ID NO: 44))”.

Question: Which “Relative Activity … at pH 3.5” value does the source give for B7 here?
Answer: The value was “+ (>0.5 to 1.5 relative activity over Rd7BB (SEQ ID NO: 44))”.

Question: Which “Relative Activity … at pH 3.5” value does the source give for B8 here?
Answer: Its value is “+ (>0.5 to 1.5 relative activity over Rd7BB (SEQ ID NO: 44))”.

Question: With B9 as the molecule, how does the “Relative Activity … at pH 3.5” value read?
Answer: The value was “+ (>0.5 to 1.5 relative activity over Rd7BB (SEQ ID NO: 44))”.

Question: Which “Relative Activity … at pH 3.5” value does the source give for B10 here?
Answer: Its value is “− (<0.5 relative activity to Rd7BB (SEQ ID NO: 44))”.

Question: Which “Relative Activity … at pH 3.5” value does the source give for B11 here?
Answer: Its value is “+ (>0.5 to 1.5 relative activity over Rd7BB (SEQ ID NO: 44))”.

Question: For B12, which “Relative Activity … at pH 3.5” value is on record?
Answer: The value was “− (<0.5 relative activity to Rd7BB (SEQ ID NO: 44))”.

Question: With B13 as the molecule, how does the “Relative Activity … at pH 3.5” value read?
Answer: The value was “+ (>0.5 to 1.5 relative activity over Rd7BB (SEQ ID NO: 44))”.

Question: For B14, which “Relative Activity … at pH 3.5” value is on record?
Answer: The value was “− (<0.5 relative activity to Rd7BB (SEQ ID NO: 44))”.

Test: HTP-analysis of yeast culture supernatants, no challenge (MUGal hydrolysis)
Assay type: biochemical
Conditions: activity of the variant/activity of Rd7BB (SEQ ID NO: 44)
How it was run: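 Activity read as 4-methylumbelliferyl α-D-galactopyranoside hydrolysis: fluorescence (355/448 nm) after sodium carbonate stop, following 30-180 min at 37° C with 2 mM MUGal stock at pH 4.6–4.8. Enzyme source is unchallenged culture supernatant of INVSc1 yeast expressing GLA variants, grown 66-84 h at 30° C.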

Question: With B1 as the molecule, how does the “Relative Activity of GLA Variants After No Challenge (NC)” value read?
Answer: The value was “+ (>0.5 to 1.5 relative activity over Rd7BB (SEQ ID NO: 44))”.

Question: With B2 as the molecule, how does the “Relative Activity of GLA Variants After No Challenge (NC)” value read?
Answer: The value was “− (<0.5 relative activity to Rd7BB (SEQ ID NO: 44))”.

Question: With B3 as the molecule, how does the “Relative Activity of GLA Variants After No Challenge (NC)” value read?
Answer: The value was “+ (>0.5 to 1.5 relative activity over Rd7BB (SEQ ID NO: 44))”.

Question: For B4, which “Relative Activity of GLA Variants After No Challenge (NC)” value is on record?
Answer: Its value is “+ (>0.5 to 1.5 relative activity over Rd7BB (SEQ ID NO: 44))”.

Question: For B5, which “Relative Activity of GLA Variants After No Challenge (NC)” value is on record?
Answer: Its value is “+ (>0.5 to 1.5 relative activity over Rd7BB (SEQ ID NO: 44))”.

Question: Which “Relative Activity of GLA Variants After No Challenge (NC)” value does the source give for B6 here?
Answer: Its value is “+ (>0.5 to 1.5 relative activity over Rd7BB (SEQ ID NO: 44))”.

Question: With B7 as the molecule, how does the “Relative Activity of GLA Variants After No Challenge (NC)” value read?
Answer: Its value is “+ (>0.5 to 1.5 relative activity over Rd7BB (SEQ ID NO: 44))”.

Question: With B8 as the molecule, how does the “Relative Activity of GLA Variants After No Challenge (NC)” value read?
Answer: Its value is “+ (>0.5 to 1.5 relative activity over Rd7BB (SEQ ID NO: 44))”.

Question: For B9, which “Relative Activity of GLA Variants After No Challenge (NC)” value is on record?
Answer: Its value is “+ (>0.5 to 1.5 relative activity over Rd7BB (SEQ ID NO: 44))”.

Question: Which “Relative Activity of GLA Variants After No Challenge (NC)” value does the source give for B10 here?
Answer: The value was “− (<0.5 relative activity to Rd7BB (SEQ ID NO: 44))”.

Question: For B11, which “Relative Activity of GLA Variants After No Challenge (NC)” value is on record?
Answer: Its value is “+ (>0.5 to 1.5 relative activity over Rd7BB (SEQ ID NO: 44))”.

Question: Which “Relative Activity of GLA Variants After No Challenge (NC)” value does the source give for B12 here?
Answer: Its value is “+ (>0.5 to 1.5 relative activity over Rd7BB (SEQ ID NO: 44))”.

Question: Which “Relative Activity of GLA Variants After No Challenge (NC)” value does the source give for B13 here?
Answer: The value was “+ (>0.5 to 1.5 relative activity over Rd7BB (SEQ ID NO: 44))”.

Question: With B14 as the molecule, how does the “Relative Activity of GLA Variants After No Challenge (NC)” value read?
Answer: Its value is “− (<0.5 relative activity to Rd7BB (SEQ ID NO: 44))”.

Test: HTP-analysis of supernatants pretreated with base (MUGal hydrolysis)
Assay type: biochemical
Conditions: activity of the variant/activity of Rd7BB (SEQ ID NO: 44); challenge at pH 7.5
How it was run: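 GLA variants secreted from yeast INVSc1; culture supernatants pre-incubated with McIlvaine buffer pH 7.0–8.2 or 200 mM bicarbonate pH 9.1–9.7 at 37° C. for 1–18 h. Residual activity: MUGal (4 mM stock) hydrolysis at pH 4.3–4.8, 37° C., 30–180 min, carbonate quench; fluorescence Ex 355/Em 448 nm.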

Question: Which “Relative Activity of GLA Variants After Challenge at pH 7.5” value (“Relative Activity … at pH 7.5” for short) does the source give for B1 here?
Answer: The value was “+ (>0.5 to 1.5 relative activity over Rd7BB (SEQ ID NO: 44))”.

Question: For B2, which “Relative Activity … at pH 7.5” value is on record?
Answer: Its value is “− (<0.5 relative activity to Rd7BB (SEQ ID NO: 44))”.

Question: Which “Relative Activity … at pH 7.5” value does the source give for B3 here?
Answer: Its value is “+ (>0.5 to 1.5 relative activity over Rd7BB (SEQ ID NO: 44))”.

Question: Which “Relative Activity … at pH 7.5” value does the source give for B4 here?
Answer: Its value is “+ (>0.5 to 1.5 relative activity over Rd7BB (SEQ ID NO: 44))”.

Question: With B5 as the molecule, how does the “Relative Activity … at pH 7.5” value read?
Answer: Its value is “+ (>0.5 to 1.5 relative activity over Rd7BB (SEQ ID NO: 44))”.

Question: For B6, which “Relative Activity … at pH 7.5” value is on record?
Answer: The value was “+ (>0.5 to 1.5 relative activity over Rd7BB (SEQ ID NO: 44))”.

Question: With B7 as the molecule, how does the “Relative Activity … at pH 7.5” value read?
Answer: Its value is “+ (>0.5 to 1.5 relative activity over Rd7BB (SEQ ID NO: 44))”.

Question: Which “Relative Activity … at pH 7.5” value does the source give for B8 here?
Answer: The value was “+ (>0.5 to 1.5 relative activity over Rd7BB (SEQ ID NO: 44))”.

Question: With B9 as the molecule, how does the “Relative Activity … at pH 7.5” value read?
Answer: Its value is “− (<0.5 relative activity to Rd7BB (SEQ ID NO: 44))”.

Question: Which “Relative Activity … at pH 7.5” value does the source give for B10 here?
Answer: Its value is “− (<0.5 relative activity to Rd7BB (SEQ ID NO: 44))”.

Question: For B11, which “Relative Activity … at pH 7.5” value is on record?
Answer: Its value is “+ (>0.5 to 1.5 relative activity over Rd7BB (SEQ ID NO: 44))”.

Question: For B12, which “Relative Activity … at pH 7.5” value is on record?
Answer: The value was “− (<0.5 relative activity to Rd7BB (SEQ ID NO: 44))”.

Question: With B13 as the molecule, how does the “Relative Activity … at pH 7.5” value read?
Answer: Its value is “+ (>0.5 to 1.5 relative activity over Rd7BB (SEQ ID NO: 44))”.

Question: For B14, which “Relative Activity … at pH 7.5” value is on record?
Answer: The value was “− (<0.5 relative activity to Rd7BB (SEQ ID NO: 44))”.
